In patent publication US10766960 (dated 2020):
Residue numbers refer to the chain shown, from its start. Where two headings read alike, the source gives them in different places.

T1: FcgRIIa H (human, UniProt P12318)
T1 chain: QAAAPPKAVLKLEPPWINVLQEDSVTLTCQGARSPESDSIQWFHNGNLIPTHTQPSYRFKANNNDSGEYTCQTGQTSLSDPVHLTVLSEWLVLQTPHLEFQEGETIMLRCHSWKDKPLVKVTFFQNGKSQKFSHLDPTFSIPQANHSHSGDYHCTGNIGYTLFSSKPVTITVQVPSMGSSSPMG

T2: FcgRIIa R (human, UniProt P12318)
T2 chain: T1 chain with H134R

T3: FcgRIIb (human, UniProt P31994)
T3 chain: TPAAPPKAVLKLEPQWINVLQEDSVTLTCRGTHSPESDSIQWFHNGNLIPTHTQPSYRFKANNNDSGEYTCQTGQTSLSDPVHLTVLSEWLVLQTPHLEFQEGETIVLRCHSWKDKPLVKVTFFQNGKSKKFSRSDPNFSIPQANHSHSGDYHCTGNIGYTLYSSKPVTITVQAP

T4: FcgRIa (human, UniProt P12314)
T4 chain: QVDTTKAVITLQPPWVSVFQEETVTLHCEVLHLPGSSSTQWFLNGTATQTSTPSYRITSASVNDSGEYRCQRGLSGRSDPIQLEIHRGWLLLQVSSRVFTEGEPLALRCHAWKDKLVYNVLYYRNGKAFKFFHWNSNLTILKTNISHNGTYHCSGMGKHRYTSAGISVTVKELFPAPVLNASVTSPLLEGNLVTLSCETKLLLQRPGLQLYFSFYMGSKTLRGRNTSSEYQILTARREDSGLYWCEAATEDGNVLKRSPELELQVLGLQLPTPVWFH

B1: GpH7-TA7/GpH7-TA58/GpL16-k0 (antibody)
chain 1: QVQLVQSGAEVKKPGASVTVSCKASGYTFTDYEMHWIRQPPGEGLEWIGAIDPKTGDTAYSESFQDRVTLTADKSTSTAYMELSSLTSEDTAVYYCTRFYSYTYWGQGTLVTVSSASTKGPSVFPLAPSSKSTSGGTAALGCLVKDYFPEPVTVSWNSGALTSGVHTFPAVLQSSGLYSLSSVVTVPSSSLGTQTYICNVNHKPSNTKVDKKVEPKSCDKTHTCPPCPAPEYLWGPSVFLFPPKPKDTLMISRTPEVTCVVVDVSHEDPEVKFNWYVDGVEVHNAKTKPREEQYNATYRVVSVLTVLHQDWLNGKEYKCKVSNKALPAPIEKTISKAKGQPREPQVYTLPPSRKELTKNQVSLTCLVKGFYPSDIAVEWESNGQPENNYKTTPPVLDSDGSFFLYSKLTVDKSRWQQGNVFSCSVMHEALHNRYTQKSLSLSP
chain 2: B1 chain 1 with Y232L, W234G, S237D, Y294W, A296S, A328L, I330E, K354D, R433H, K437E
chain 3: DIVMTQSPLSLPVTPGEPASISCQASESLVHSNRNTYLHWYLQKPGQSPQLLIYKVSNRFSGVPDRFSGSGSGTDFTLKISRVEAEDVGVYYCSQNTHVPPTFGQGTKVEIERTVAAPSVFIFPPSDEQLKSGTASVVCLLNNFYPREAKVQWKVDNALQSGNSQESVTEQDSKDSTYSLSSTLTLSKADYEKHKVYACEVTHQGLSSPVTKSFNRGEC
B2: GpH7-A5/GpH7-B80/GpL16-k0 (antibody)
chain 1: not shown
chain 2: not shown
chain 3: B1 chain 3
B3: GpH7-TA7/GpH7-TA50/GpL16-k0 (antibody)
chain 1: B1 chain 1
chain 2: B1 chain 1 with Y232L, W234G, S237D, A296S, A328L, I330E, K332G, K354D, R433H, K437E
chain 3: B1 chain 3
B4: GpH7-TA52/GpH7-B78/GpL16-k0 (antibody)
chain 1: B1 chain 1 with Y294W
chain 2: B1 chain 1 with Y232L, W234G, S237D, A296S, A328L, I330E, K354D, R433H, K437E
chain 3: B1 chain 3
B5: GpH7-TA40/GpH7-B78/GpL16-k0 (antibody)
chain 1: B1 chain 1 with K332G
chain 2: B1 chain 1 with Y232L, W234G, S237D, A296S, A328L, I330E, K354D, R433H, K437E
chain 3: B1 chain 3
B6: GpH7-A44/GpH7-B3/GpL16-k0 (antibody)
chain 1: B1 chain 1 with Y232L, W234G, A296S, I330E
chain 2: not shown
chain 3: B1 chain 3
B7: GpH7-A44/GpH7-B80/GpL16-k0 (antibody)
chain 1: B1 chain 1 with Y232L, W234G, A296S, I330E
chain 2: not shown
chain 3: B1 chain 3
B8: H240-G1d/L73-k0 (antibody)
chain 1: not shown
chain 2: DIQMTQSPSSLSASVGDRVTITCRASQDIHKYIAWYQQKPGQAPRLLIQYTSTLQPGVPSRFSGSGSGTDYTFTISSLQPEDIATYYCLQYEQLRTFGGGTKVEIKRTVAAPSVFIFPPSDEQLKSGTASVVCLLNNFYPREAKVQWKVDNALQSGNSQESVTEQDSKDSTYSLSSTLTLSKADYEKHKVYACEVTHQGLSSPVTKSFNRGEC
B9: H240-Kn033/H240-Hl033/L73-k0 (antibody)
chain 1: not shown
chain 2: not shown
chain 3: B8 chain 2
B10: H240-afucosyl_G1d/L73-k0 (antibody)
chain 1: not shown
chain 2: B8 chain 2

Experiments:
Assay in all cases: SPR
FcgRIIIa F [1] = biological target: T5, FcgRIIIa F (human, UniProt P08637)
T5 sequence (P08637 17-208): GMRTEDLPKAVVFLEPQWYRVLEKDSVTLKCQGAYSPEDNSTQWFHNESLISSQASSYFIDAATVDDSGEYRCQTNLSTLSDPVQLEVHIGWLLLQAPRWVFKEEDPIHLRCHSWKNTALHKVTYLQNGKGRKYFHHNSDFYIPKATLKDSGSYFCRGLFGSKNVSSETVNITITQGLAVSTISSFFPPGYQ

FcgRIIIa F [2] = biological target: T5, FcgRIIIa F; remark: listed apart in the source
FcgRIIIa F [3] = biological target: T5, FcgRIIIa F; remark: listed apart in the source
FcgRIIa H [4] = biological target: T1, FcgRIIa H
FcgRIIa R [5] = biological target: T2, FcgRIIa R
FcgRIIb [6] = biological target: T3, FcgRIIb
FcgRIIb [7] = biological target: T3, FcgRIIb
FcgRIIIa V [8] = biological target: T6, FcgRIIIa V (human, UniProt P08637)
T6 sequence (P08637 17-208 F176V): as the sequence (P08637 17-208) above, with F160V counted along it

FcgRIIIa F [9] = biological target: T5, FcgRIIIa F; remark: listed apart in the source
FcgRIa [10] = biological target: T4, FcgRIa
FcgRIIa H [11] = biological target: T1, FcgRIIa H
FcgRIIIa V [12] = biological target: T6, FcgRIIIa V; remark: listed apart in the source
FcgRIIIa F [13] = biological target: T5, FcgRIIIa F; remark: listed apart in the source
FcgRIIa R [14] = biological target: T2, FcgRIIa R
FcgRIIb [15] = biological target: T3, FcgRIIb
FcgRIa [16] = biological target: T4, FcgRIa
FcgRIIb [17] = biological target: T3, FcgRIIb
FcgRIIIa F [18] = biological target: T5, FcgRIIIa F; remark: listed apart in the source

| Binder | Kd (FcgRIIIa F [2]) [nM] | Kd (FcgRIIa H [4]) [nM] | Kd (FcgRIIa R [5]) [nM] | Kd (FcgRIIb [7]) [nM] | Kd (FcgRIIIa V [8]) [nM] | Kd (FcgRIIIa F [9]) [nM] | Kd (FcgRIa [10]) [nM] | also measured |
| --- | --- | --- | --- | --- | --- | --- | --- | --- |
| B1 | – | – | – | – | – | – | – | Kd (FcgRIIIa F [1]): 3.3 nM |
| B2 | 470 | – | – | – | – | – | – | – |
| B3 | – | – | – | – | – | – | – | Kd (FcgRIIIa F [3]): 3.4 nM |
| B4 | – | – | – | – | – | – | – | Kd (FcgRIIIa F [1]): 2.3 nM |
| B5 | – | – | – | – | – | – | – | Kd (FcgRIIIa F [3]): 7.5 nM |
| B6 | 370 | – | – | – | – | – | – | – |
| B7 | 230 | – | – | – | – | – | – | – |
| B8 | – | 660 | 880 | 6000 | 310 | 1400 | 0.23 | Kd (FcgRIIb [6]): 6100 nM |
| B9 | – | 930 | 1000 | 4100 | 390 | 2600 | 0.25 | Kd (FcgRIIa H [11]): 520 nM; Kd (FcgRIIIa V [12]): 48 nM; Kd (FcgRIIIa F [13]): 290 nM; Kd (FcgRIIa R [14]): 740 nM; Kd (FcgRIIb [15]): 3300 nM; Kd (FcgRIa [16]): 0.095 nM; Kd (FcgRIIb [17]): 4200 nM |
| B10 | – | 780 | 490 | 2600 | 6.9 | 78 | 0.43 | Kd (FcgRIIIa F [18]): 79 nM |
